# Experimental data taken from article PMC9151340.
# T1: GlnR (UniProt F2RFQ1 1-276)
# T1 sequence: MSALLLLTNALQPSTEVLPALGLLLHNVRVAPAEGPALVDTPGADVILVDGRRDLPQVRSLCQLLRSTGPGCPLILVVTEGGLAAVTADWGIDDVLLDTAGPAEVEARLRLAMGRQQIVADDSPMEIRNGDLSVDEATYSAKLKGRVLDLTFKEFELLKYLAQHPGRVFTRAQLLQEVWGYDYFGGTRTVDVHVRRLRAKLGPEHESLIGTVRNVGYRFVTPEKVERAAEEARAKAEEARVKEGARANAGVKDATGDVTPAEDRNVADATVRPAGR
# T2: MtrA (UniProt F2R521 1-225)
# T2 sequence: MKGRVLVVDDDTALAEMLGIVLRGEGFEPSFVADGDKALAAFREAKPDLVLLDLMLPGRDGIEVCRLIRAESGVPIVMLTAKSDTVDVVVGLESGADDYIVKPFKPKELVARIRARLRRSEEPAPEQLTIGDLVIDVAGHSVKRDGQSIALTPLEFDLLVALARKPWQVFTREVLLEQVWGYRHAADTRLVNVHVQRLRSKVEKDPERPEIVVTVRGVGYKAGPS
# B1: mtrA WT (SVEN2756 WT) (dsDNA)
# DNA 1: TACGGTGCAGGCCGACCACGGGGGCCCACGGGGGTGACATCCATGTCTGGCATCAACAC
# DNA 2: GTGTTGATGCCAGACATGGATGTCACCCCCGTGGGCCCCCGTGGTCGGCCTGCACCGTA
# B2: mtrA M1 (SVEN2756 M1) (dsDNA)
# DNA 1: TACGGTGCAGGCCGACCACGGGGGCCCACGGGGAGGCTATCCATGTCTGGCATCAACAC
# DNA 2: GTGTTGATGCCAGACATGGATAGCCTCCCCGTGGGCCCCCGTGGTCGGCCTGCACCGTA
# B3: mtrA M2 (SVEN2756 M2) (dsDNA)
# DNA 1: TACGGTGCAGGCCGACCACGGGGGCCCACGGGGGTGACATCCATACTTGGCATCAACAC
# DNA 2: GTGTTGATGCCAAGTATGGATGTCACCCCCGTGGGCCCCCGTGGTCGGCCTGCACCGTA
# B4: mtrA M3 (SVEN2756 M3) (dsDNA)
# DNA 1: TACGGTGCAGGCCGACCACGGGGGCCCACGGGGAGGCTATCCATACTTGGCATCAACAC
# DNA 2: GTGTTGATGCCAAGTATGGATAGCCTCCCCGTGGGCCCCCGTGGTCGGCCTGCACCGTA
# B5: nirB-WT (dsDNA)
# DNA 1: GGAGATCAGCGTTCCGTACGGGAAACAGTCGGGATGCCGCCGGGTAACACCGGCCGCGC
# DNA 2: GCGCGGCCGGTGTTACCCGGCGGCATCCCGACTGTTTCCCGTACGGAACGCTGATCTCC
# B6: SVEN1860 WT (dsDNA)
# DNA 1: GTTTCATCAGTGTTTGACCACCGGGTCACGCCCTGGTAACACCAGTCTGTGAGCCTGGT
# DNA 2: ACCAGGCTCACAGACTGGTGTTACCAGGGCGTGACCCGGTGGTCAAACACTGATGAAAC
# Biological target: T1, GlnR
# Assay: EMSA
row,Binder,binding result
1,B1,binds

# Biological target: T2, MtrA
# Assay: EMSA
row,Binder,binding result
1,B1,binds
2,B2,no binding
3,B3,no binding
4,B4,no binding
5,B5,binds
6,B6,binds
